Reference: publication PMC11613296

Target: Tau (2N4R Tau; Tau(291–391)) 2-441 (UniProt P10636)
Assay: ELISA, immobilised Tau(291–391), soluble 2N4R Tau
Settings: reference: unmodified (WT) Tau(291–391)

binding against the reference (sites S356)	binding against the reference (sites S352)	Substance
weaker		Tau (2N4R Tau; Tau(291–391)) 291-391 (from UniProt P10636-8) pS356 Tau(291–391)
	weaker	Tau (2N4R Tau; Tau(291–391)) 291-391 (from UniProt P10636-8) pS352 Tau(291–391)
